Test results: US20230190642A1, “GROWTH FACTOR OTIC FORMULATIONS” (OTONOMY, INC., priority 2018, published 2023)

Legend:
[1] = test system: Spiral ganglion neurons (SGNs); assay: Survival of dissociated spiral ganglion neurons (Example C); assay type: cell-based, rat; settings: 1 µM; compared to vehicle-only control, 0.01% DMSO; FIG. 6C
Protocol: Spiral ganglion neurons (SGNs) were harvested from P1-P3 rates, dissociated, and cultured in 96-well plates. The SGNs were treated with neurotrophins and/or antibodies at various concentrations. After about 24 hours, media was exchanged to serum-free media and the neurotrophins and/or antibodies were replenished. Cells were cultured for an additional 48-72 hours before being fixed using 4% paraformaldehyde (PFA) and stained using 4′,6-diamidino-2-phenylindole (DAPI). […] Surviving neurons were identified as cells with intact soma and at least one neurite.

[2] = test system: tinnitus; settings: administered by IV; cited from earlier work
[3] = test system: Méniére’s disease symptoms; settings: infusion into the scala tympani; cited from earlier work
[4] = test system: noise exposed adult rats; assay: Noise-induced hearing loss / synaptopathy in rats (Example A1); assay type: in vivo, rat
Protocol: Poloxamer 407 gel at 16% was prepared using the cold method. In brief, a 16% w/w stock solution of poloxamer 407 was prepared by slowly adding it to a cold buffer solution (10 mM PBS, pH 7.4). Sterilization was achieved by filtration. Human recombinant BDNF was suspended with an appropriate amount of poloxamer 407 solution to reach a range of concentration of 0.05 to 5.0 mg/ml BDNF.
Male rats (Charles River) approximately 10-11 months of age served as subjects (N = 6 per group). Prior to any procedures, animals were anesthetized using a combination of xylazine (10 mg/kg) and ketamine (90 mg/kg) for up to one hour via the intraperitoneal route. If needed, an intraoperative booster was administered intraperitoneally representing one-tenth of the original dose. […]
Auditory Brainstem Response (ABR) assessment (wave 1) - During the procedure, additional anesthetic (xylazine and ketamine) was administered if needed to maintain the depth of anesthesia sufficient to insure immobilization and relaxation. ABRs were recorded in an electrically and acoustically shielded chamber, one ear at a time. […] Acoustic calibration was performed with TDT software (SigCal) and thresholds were expressed as dB SPL in conditions identical to that of threshold recordings in animals. […] Wave 1 was quantified by averaging the wave 1 amplitude from intensities ranging between 60-80 dB SPL. […]

[5] = test system: noise-induced cochlear synaptopathy; assay: Noise-induced cochlear synaptopathy in rats (Example G); assay type: in vivo, rat
Protocol: Animals: Male Sprague-Dawley rats (5-6 months of age) were used for efficacy studies and females (2-3 months) were used for pharmacokinetic studies.
Formulations: Human recombinant BDNF was suspended in the thermoreversible polymer Poloxamer 407 (16%) to reach a range of BDNF concentrations.
Intratympanic (IT) injection: Formulations were administered under anesthesia as a single IT injection (20 µl through the tympanic membrane into the middle ear, targeting the round window membrane (RWM).
Noise-induced cochlear synaptopathy: Rats (n= 44 per treatment group) received a single acoustic trauma (105 dB SPL, 8-16 kHz, 1h) under anesthesia. 24 hours later (Day 1) animals received a single bilateral IT injection of the treatment regimens. Auditory function (ABR and ABR wave 1 amplitude) was monitored at day 1 and then every 7 days for 28 days. At termination (Day 28), cochleae were collected and assessed for evidence of cochlear synaptopathy (IHC synaptic puncta counts).
Immunohistochemistry: Dissected cochleae were immunostained with antibodies against presynaptic (CtBP2) and postsynaptic (GluR2) proteins and MyosinVIIa to label hair cells. Cochleae were then frequency mapped and high-magnification images were obtained with a Zeiss LSM-880 confocal microscope and imaged at an interval of 0.35 µm.
Intratympanic BDNF improves Auditory Brainstem Response (ABR) thresholds and wave I amplitudes in adult rats. The Auditory Brainstem Response (ABR) is an objective test that measures hearing sensitivity and can identify abnormalities in the peripheral auditory system and the auditory pathway up through the brainstem. Adult male rats were bilaterally exposed to noise followed by an intratympanic injection of 0.05 mg/ml BDNF in P407 24 hours after noise exposure. ABR recordings were obtained at days 1, 7, 14, and 28.

[6] = test system: SGNs; assay: SGN complexity, dissociated SGNs (Example D); assay type: cell-based, rat; settings: compared to IgG-treated control, FIG. 7D
From the text: SGNs were immunostained, imaged, and batch analyzed with PerkinElmer Harmony 4.6 software. Changes in the complexities of SGNs upon treatment with various agents were examined. […] All of the images in a single well were stitched together and analyzed. SGN somas are shown in the upper right panel and SGN neurites are shown in the lower left panel. As shown in the lower right panel, each neurite tree is assigned to a single cell for analysis. Depending on the stitching, occasionally neurites will not meet the criteria due to gaps that exceed a user-defined threshold.

Question: Which “Survival of SGNs” value [1] does the source give for `OCCN(CCO)c1ccc(C(c2ccc(Cl)cc2)c2ccc(N(CCO)CCO)cc2)cc1` [LM22b10] here?
Answer: The value was “not improved”.

Question: With `CCN(CC)CC(=O)Nc1c(C)cccc1C` [Lidocaine] as the molecule, how does the “sufferers in whom the noise associated with tinnitus is reduced or eliminated” value [2] read?
Answer: Its value is 60-80%.

Question: Which “Méniére’s disease symptoms” value [3] does the source give for `Cc1ccccc1C(=O)Nc1ccc(C(=O)N2CCCC(N(C)C)c3ccccc32)cc1` (stereo not drawn) [OPC-31260] here?
Answer: Its value is “marked reduction”.

B1: brain-derived neurotrophic factor (protein, UniProt P23560 19-247, looked up)
Neurotrophic factor BDNF …: APMKEANIRGQGGLAYPGVRTHGTLESVNGPKAGSRGLTSLADTFEHVIEELLDEDQKVRPNEENNKDADLYTSRVMLSSQVPLEPPLLFLLEEYKNYLDAANMSMRVRRHSDPARRGELSVCDSISEWVTAADKKTAVDMSGGTVTVLEKVPVSKGQLKQYFYETKCNPMGYTKEGCRGIDKRHWNSQCRTTQSYVRALTMDSKKRIGWRFIRIDTSCVCTLTIKRGR
notes: Human recombinant BDNF; neurotrophin, Trk agonist on spiral ganglion neurons
Question: With B1 as the molecule, how does the “hearing function (wave I amplitude)” value ([4]; single intratympanic 0.005% BDNF in Poloxamer 407 24 hrs after noise, compared to vehicle, FIG. 3A) read?
Answer: The value was “improved hearing function”.

Question: And the “number of ribbon synapses per inner hair cell” value ([4]; single intratympanic 0.005% BDNF in Poloxamer 407, Day 28, compared to vehicle, FIG. 3B)?
Answer: Its value is “increased”.

Question: What about the “ABR wave I amplitudes” value ([5]; adult male rats, BDNF or vehicle treatment following noise exposure, across many frequencies, FIG. 12C) of the same molecule?
Answer: The value was “Significant improvements”.

Question: What about the “recovery of initial ABR threshold shifts” value ([5]; adult male rats, intratympanic 0.05 mg/ml BDNF in P407 24 hours after noise exposure, ABR at days 1, 7, 14, 28, vs P407 vehicle, FIG. 12A) of the same molecule?
Answer: The value was “more rapid recovery”.

Question: And the “levels of hearing loss” value ([5]; adult male rats, intratympanic 0.05 mg/ml BDNF in P407 24 hours after noise exposure, vs P407 vehicle)?
Answer: The value was “reduced”.

Question: And the “synaptic puncta (co-expression of CtBp2 and GluR2) per inner hair cell” value ([5]; adult rats after noise damage, each frequency region throughout the cochlea, FIG. 13C)?
Answer: Its value is “increased”.

Question: What about the cochlear synaptopathy ([5]; adult rats, intratympanic BDNF) of the same molecule?
Answer: Its cochlear synaptopathy is “repairs”.

Question: And the “total neurite length, total number of extremities, segments, and nodes per cell (differences)” value [6]?
Answer: The value was “not statistically significant”.

B2: neurotrophin-3 (protein, UniProt P20783 139-257, looked up)
Neurotrophin-3: YAEHKSHRGEYSVCDSESLWVTDKSSAIDIRGHQVTVLGEIKTGNSPVKQYFYETRCKEARPVKNGCRGIDDKHWNSQCKTSQTYVRALTSENNKLVGWRWIRIDTSCVCALSRKIGRT
notes: neurotrophin; Trk agonist on spiral ganglion neurons
Question: For B2, which “total neurite length, total number of extremities, segments, and nodes per cell (differences)” value [6] is on record?
Answer: The value was “not statistically significant”.
